Experiments:
[1] = tested on: CCCCCCC(=O)Oc1ccc2c(C)cc(=O)oc2c1; experiment: purified protein, by the assay type
Procedure: (§1) In detail, FplA was used at 1 nM in the reaction, and substrate (50 mM stock in 100% DMSO) dilutions (0–200 μM) and reactions were carried out in reaction buffer (50 mM Tris, pH 8.5, 50 mM NaCl, 0.025% BOG). All samples, including controls, contained equal concentrations of DMSO (0.4%). Reactions were run at 26 °C for 30 min with 3 s of shaking between continuous fluorescent monitoring (excitation = 360 nm, emission = 449 nm) every 2 min on a SpectraMax M5^e plate reader. Relative fluorescence units measured upon cleavage of substrate ester bonds and release of the acyl chain were converted to the concentration of product (4-methylumbeliferone; 4-Mu) created by establishing a standard curve using pure 4-Mu (Sigma-Aldrich).
(§2) The steady-state kinetic parameters for each substrate were determined using GraphPad Prism version 6 (GraphPad Software, La Jolla, CA) by fitting the initial rate data (n = 2) to the Michaelis–Menten equation, (Eq. 1) v=Vmax⁡[S]/(Km+[S]) to obtain the values reported in Fig. 2 and supplemental Fig. S3.

FplA(20–431) = FplA(20–431) (Fusobacterium nucleatum subsp. nucleatum, UniProt Q8R6F6); format: biochemical, F. nucleatum 25586
[2] = tested on: CCCC(=O)Oc1ccc2c(C)cc(=O)oc2c1; experiment: purified protein, by the assay type; details: other: Fig. 4C/D, substrate of FplA(20–431), 1 nM enzyme, pH 8.5, 26 °C
Procedure: as §1, §2

[3] = tested on: CCCCCCCCCCCCCCCC(=O)Oc1ccc2c(C)cc(=O)oc2c1; experiment: purified protein, by the assay type; details: other: Fig. 4C/D, substrate of FplA(20–431), 1 nM enzyme, pH 8.5, 26 °C
Procedure: as §1, §2

[4] = other: Fig. 4E, 4-MuH as substrate, construct FplA20-350, pH 8.5, 26.0 °C
[5] = other: Fig. 4E, 4-MuH as substrate, construct FplA60-431, pH 8.5, 26.0 °C
[6] = other: Fig. 4E, 4-MuH as substrate, construct FplA60-350, pH 8.5, 26.0 °C
[7] = other: Fig. 4E, 4-MuH as substrate, construct FplA20-431, pH 8.5, 26.0 °C

Chain of FplA(20–431) (Q8R6F6 20-431 limits assumed): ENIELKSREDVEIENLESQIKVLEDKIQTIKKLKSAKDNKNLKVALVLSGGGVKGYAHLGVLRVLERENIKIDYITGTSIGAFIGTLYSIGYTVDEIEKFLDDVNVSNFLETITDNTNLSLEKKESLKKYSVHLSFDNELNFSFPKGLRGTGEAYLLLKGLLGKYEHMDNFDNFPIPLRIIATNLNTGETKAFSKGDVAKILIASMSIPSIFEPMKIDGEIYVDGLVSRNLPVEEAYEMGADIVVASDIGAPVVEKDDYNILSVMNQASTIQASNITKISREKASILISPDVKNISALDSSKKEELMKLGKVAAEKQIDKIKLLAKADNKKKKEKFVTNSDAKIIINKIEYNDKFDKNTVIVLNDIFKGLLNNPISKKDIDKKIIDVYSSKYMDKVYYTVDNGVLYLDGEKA

FplA20-350 (Fusobacterium nucleatum subsp. nucleatum ATCC 25586)
Km [1, 4]: 23.5 ± 6.5 µM
kcat [1, 4]: 75 ± 6.2 s⁻¹

FplA60-431 (Fusobacterium nucleatum subsp. nucleatum ATCC 25586)
Km [1, 5]: 18.2 ± 7.4 µM
kcat [1, 5]: 2.8 ± 0.3 s⁻¹
kcat/Km [1, 5]: 150000 ± 60000 M⁻¹ s⁻¹

CCCCC/C=C\C/C=C\C/C=C\C/C=C\CCCC(=O)C(F)(F)F [ATFMK, arachidonyl trifluoromethyl ketone]
Inhibition of FplA, potency in words (FplA(20–431)): potent inhibitors

FplA60-350 (Fusobacterium nucleatum subsp. nucleatum ATCC 25586)
Km [1, 6]: 17.7 ± 8.4 µM
kcat [1, 6]: 2.1 ± 0.3 s⁻¹
kcat/Km [1, 6]: 120000 ± 60000 M⁻¹ s⁻¹

FplA(20–431) (Fusobacterium nucleatum subsp. nucleatum ATCC 25586)
Km [2]: 500 µM
Km [3]: 23 µM
Km ([1]; other: Fig. 4C/D, substrate of FplA(20–431), 1 nM enzyme, pH 8.5, 26 °C): 19 µM
Km [1, 7]: 19.6 ± 5.0 µM
kcat [1, 7]: 55 ± 4.0 s⁻¹
kcat/Km [1, 7]: 2.8e+06 ± 700000 M⁻¹ s⁻¹
